One substance from PMC11257959 can be followed below.

This data set has as its system NG-RYBP (Homo sapiens). In words: EMSA. Particulars: n=3; almost fourfold; EMSA: 25 mM Tris-HCl pH 7.5, 50 mM NaCl, 0.05% Tween 20, 5 mM MgCl2, 4% glycerol, 0.2 nM nucleosome, 10 min on ice, 1% agarose 0.4x TBE; cryo-EM binding: 50 mM ….

As for Nuc (EMSA, 201 bp 601), the binding signal (fold lower affinity than NucH2Aub1) worked out at 4.
